Measurements as given in the supplement of paper PMC10567573.

B1: TRAF3IP2 (parent)
chain: APWNYHYHCPGSPDHQVPYGHDYP

Variants of: B1
Test: protein stability index of a GFP-peptide fusion (GPS, HEK-293T) (PSI 1-6); higher = more stable
Details: c terminus: a fixed tail appended
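Further: lentivirally expressed fusions sorted by FACS into six bins by GFP to DsRed ratio, PSI derived from sequencing read proportions per bin multiplied by bin number.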

Protein stability index of substitutions, site by site:
P2: Q 2.35; R 2.28; S 2.1; T 2.21; V 2.45; W 1.27; Y 1.51
W3: A 3.6; C 4.01; D 4.04; E 4.48; F 2.22; G 3.43; H 3.51; I 3.39; K 3.05; L 3.03; M 3.08; N 4.12; Q 3.54; R 3.72; S 3.95; T 4.03; V 2.52; Y 3.04
N4: A 1.7; C 2.17; D 3.54; E 3.39; F 2.63; G 2; H 1.97; I 2.43; K 2.24; L 2.26; M 2.78; P 2.59; Q 3.04; S 3.36; T 2.63; V 2.12; W 1.51; Y 2.54
Y5: A 3.65; C 3.43; D 3.93; E 4.08; F 2.19; G 3.96; H 2.63; I 3.64; K 3.14; L 3.3; M 3; N 3.43; P 3.84; Q 2.94; R 3.04; S 3.47; T 3.52; V 3.21; W 2.91
H6: A 2.73; C 3.34; D 3.57; E 4.43; F 2.14; G 2.96; I 2.42; K 2.97; L 2.39; M 2.54; N 3.15; P 3.38; Q 2.97; R 2.9; S 3.2; T 2.94; V 1.94; W 2.59; Y 2.02
Y7: A 3.15; C 2.49; D 3.79; E 3.6; F 2.4; G 3.43; H 3.42; I 2.52; K 2.91; L 2.6; M 1.5; N 3.4; P 3.29; Q 3.83; R 3.09; S 2.82; T 2.85; V 2.67; W 1.99
H8: A 2.06; C 2.42; D 2.9; E 2.25; F 2.22; G 2.12; I 2.08; K 1.73; L 2.2; M 1.69; N 2.1; P 1.99; Q 2.82; R 1.66; S 2.44; T 2.41; V 1.95; W 2.26; Y 1.84
C9: A 2.08; D 2.59; E 2.55; F 1.93; G 2.05; H 2.28; I 1.85; K 2.66; L 1.98; M 2.73; N 2.17; P 1.9; Q 2.16; R 2.52; S 2.52; T 1.69; V 2.7; W 1.78; Y 2.16
P10: A 1.69; C 1.5; D 2.31; E 2.27; F 2.07; G 1.71; H 1.96; I 1.66; K 2.4; L 1.54; M 2.02; N 2.08; Q 2.04; R 1.29; S 2.08; T 1.86; V 2.09; W 1.46; Y 2.13
G11: A 2.55; C 2.02; D 2.21; E 2.06; F 2.73; H 2.11; I 1.63; K 1.92; L 2.31; M 3.15
